B1: chCB6-huIgG1 K334Q (antibody, name in EU numbering)
heavy: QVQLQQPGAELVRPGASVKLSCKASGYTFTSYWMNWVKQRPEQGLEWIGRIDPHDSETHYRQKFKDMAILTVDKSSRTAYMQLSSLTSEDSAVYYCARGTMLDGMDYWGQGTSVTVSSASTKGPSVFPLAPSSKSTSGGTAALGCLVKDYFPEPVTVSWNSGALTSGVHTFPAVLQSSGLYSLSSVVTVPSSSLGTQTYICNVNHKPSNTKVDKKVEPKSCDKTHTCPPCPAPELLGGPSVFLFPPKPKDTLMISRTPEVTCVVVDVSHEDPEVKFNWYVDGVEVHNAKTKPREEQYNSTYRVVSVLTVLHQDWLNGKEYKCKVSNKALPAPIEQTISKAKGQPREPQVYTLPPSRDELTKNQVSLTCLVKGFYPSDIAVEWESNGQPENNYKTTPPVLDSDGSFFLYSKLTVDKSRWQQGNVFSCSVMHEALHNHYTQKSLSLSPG
light: QIVLTQSPAIMSASPGEKVTMTCRASSSVSHMHWYQQKSGTSPKRWIYDTSKLASGVPARFSGSGSGTSYSLTISSVEAEDAATYYCQQWSSNPLTFGAGTKLELKRTVAAPSVFIFPPSDEQLKSGTASVVCLLNNFYPREAKVQWKVDNALQSGNSQESVTEQDSKDSTYSLSSTLTLSKADYEKHKVYACEVTHQGLSSPVTKSFNRGEC
notes: copies: 2 + 2
B2: chCB6-huIgG1 K334R (antibody, name in EU numbering)
heavy: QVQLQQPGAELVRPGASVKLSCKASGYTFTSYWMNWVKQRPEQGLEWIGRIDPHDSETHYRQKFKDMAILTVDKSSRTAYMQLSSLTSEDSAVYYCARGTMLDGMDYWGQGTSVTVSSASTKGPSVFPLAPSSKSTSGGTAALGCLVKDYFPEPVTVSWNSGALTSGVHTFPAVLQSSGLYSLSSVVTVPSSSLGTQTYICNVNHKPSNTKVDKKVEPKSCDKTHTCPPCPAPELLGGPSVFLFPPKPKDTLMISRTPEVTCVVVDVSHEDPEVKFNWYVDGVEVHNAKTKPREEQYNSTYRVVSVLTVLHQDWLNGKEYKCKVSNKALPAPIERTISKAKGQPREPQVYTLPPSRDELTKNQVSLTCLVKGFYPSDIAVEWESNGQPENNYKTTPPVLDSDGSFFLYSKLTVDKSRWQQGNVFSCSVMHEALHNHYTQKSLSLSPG
light: B1 light
notes: copies: 2 + 2
B3: chCB6-huIgG1 L251A (antibody, name in EU numbering)
heavy: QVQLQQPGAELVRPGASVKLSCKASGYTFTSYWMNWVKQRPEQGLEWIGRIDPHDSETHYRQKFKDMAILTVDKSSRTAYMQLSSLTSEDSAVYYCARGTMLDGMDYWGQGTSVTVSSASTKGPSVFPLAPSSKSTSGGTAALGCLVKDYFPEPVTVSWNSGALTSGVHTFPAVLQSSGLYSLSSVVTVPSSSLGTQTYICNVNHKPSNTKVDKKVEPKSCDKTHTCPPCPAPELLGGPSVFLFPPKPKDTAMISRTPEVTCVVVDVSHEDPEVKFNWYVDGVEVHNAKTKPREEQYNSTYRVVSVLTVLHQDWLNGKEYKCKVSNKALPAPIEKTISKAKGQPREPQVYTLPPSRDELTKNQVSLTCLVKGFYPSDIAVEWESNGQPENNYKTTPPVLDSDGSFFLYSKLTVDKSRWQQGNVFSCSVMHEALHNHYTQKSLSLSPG
light: B1 light
notes: copies: 2 + 2
B4: chCB6-huIgG1 K334V (antibody, name in EU numbering)
heavy: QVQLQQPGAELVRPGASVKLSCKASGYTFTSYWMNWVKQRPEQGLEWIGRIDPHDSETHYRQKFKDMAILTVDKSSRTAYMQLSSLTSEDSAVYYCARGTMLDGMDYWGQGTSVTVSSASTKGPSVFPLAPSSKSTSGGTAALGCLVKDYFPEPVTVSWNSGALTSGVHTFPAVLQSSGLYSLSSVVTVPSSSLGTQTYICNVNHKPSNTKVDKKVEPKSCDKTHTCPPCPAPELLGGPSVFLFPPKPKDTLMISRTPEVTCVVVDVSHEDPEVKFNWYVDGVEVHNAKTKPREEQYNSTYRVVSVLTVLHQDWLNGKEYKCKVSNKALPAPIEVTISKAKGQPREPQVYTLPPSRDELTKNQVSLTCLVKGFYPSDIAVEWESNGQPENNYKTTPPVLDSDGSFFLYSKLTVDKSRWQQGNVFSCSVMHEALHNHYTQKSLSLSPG
light: B1 light
notes: copies: 2 + 2
B5: chCB6-huIgG1 H435S (antibody, name in EU numbering)
heavy: not shown
light: B1 light
notes: copies: 2 + 2
B6: chCB6-huIgG1 Y296T (antibody, name in EU numbering)
heavy: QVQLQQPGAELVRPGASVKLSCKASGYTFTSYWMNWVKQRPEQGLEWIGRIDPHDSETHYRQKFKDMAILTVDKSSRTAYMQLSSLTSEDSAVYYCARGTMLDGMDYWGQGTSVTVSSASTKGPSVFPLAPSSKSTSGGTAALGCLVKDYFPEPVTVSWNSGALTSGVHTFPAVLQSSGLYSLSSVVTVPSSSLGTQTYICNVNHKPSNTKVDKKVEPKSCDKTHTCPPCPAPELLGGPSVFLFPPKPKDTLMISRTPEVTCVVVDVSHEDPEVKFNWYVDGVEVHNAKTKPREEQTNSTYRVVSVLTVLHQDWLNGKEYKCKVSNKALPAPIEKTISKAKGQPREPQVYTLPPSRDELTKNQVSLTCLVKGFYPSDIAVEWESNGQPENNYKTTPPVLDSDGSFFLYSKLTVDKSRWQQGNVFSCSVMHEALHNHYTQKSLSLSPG
light: B1 light
notes: copies: 2 + 2
B7: chCB6-huIgG1 H435A (antibody, name in EU numbering)
heavy: not shown
light: B1 light
notes: copies: 2 + 2
B8: chCB6-huIgG1 R301T (antibody, name in EU numbering)
heavy: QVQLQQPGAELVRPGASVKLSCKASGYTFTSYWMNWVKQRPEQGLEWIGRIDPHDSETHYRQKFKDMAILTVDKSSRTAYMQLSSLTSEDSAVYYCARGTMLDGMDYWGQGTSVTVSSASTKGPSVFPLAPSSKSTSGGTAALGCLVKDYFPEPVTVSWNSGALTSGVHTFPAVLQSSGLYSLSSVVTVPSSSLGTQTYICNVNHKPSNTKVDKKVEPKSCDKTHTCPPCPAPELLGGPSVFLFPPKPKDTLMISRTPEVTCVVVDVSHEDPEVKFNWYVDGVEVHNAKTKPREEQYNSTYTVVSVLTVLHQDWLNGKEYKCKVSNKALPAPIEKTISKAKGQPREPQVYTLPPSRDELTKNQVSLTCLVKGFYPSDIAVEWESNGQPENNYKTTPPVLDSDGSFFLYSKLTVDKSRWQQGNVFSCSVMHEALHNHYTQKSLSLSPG
light: B1 light
notes: copies: 2 + 2
B9: chCB6-huIgG1 Y296Q (antibody, name in EU numbering)
heavy: not shown
light: B1 light
notes: copies: 2 + 2
B10: chCB6-huIgG1 A378K (antibody, name in EU numbering)
heavy: not shown
light: B1 light
notes: copies: 2 + 2
B11: chCB6-huIgG1 L251S (antibody, name in EU numbering)
heavy: not shown
light: B1 light
notes: copies: 2 + 2
B12: chCB6-huIgG1 D376R (antibody, name in EU numbering)
heavy: not shown
light: B1 light
notes: copies: 2 + 2
B13: chCB6-huIgG1 E294N (antibody, name in EU numbering)
heavy: not shown
light: B1 light
notes: copies: 2 + 2
B14: chCB6-huIgG1 L251G (antibody, name in EU numbering)
heavy: not shown
light: B1 light
notes: copies: 2 + 2
B15: chCB6-huIgG1 R301A (antibody, name in EU numbering)
heavy: not shown
light: B1 light
notes: copies: 2 + 2
B16: chCB6-huIgG1 A378Q (antibody, name in EU numbering)
heavy: not shown
light: B1 light
notes: copies: 2 + 2
B17: chCB6-huIgG1 H435G (antibody, name in EU numbering)
heavy: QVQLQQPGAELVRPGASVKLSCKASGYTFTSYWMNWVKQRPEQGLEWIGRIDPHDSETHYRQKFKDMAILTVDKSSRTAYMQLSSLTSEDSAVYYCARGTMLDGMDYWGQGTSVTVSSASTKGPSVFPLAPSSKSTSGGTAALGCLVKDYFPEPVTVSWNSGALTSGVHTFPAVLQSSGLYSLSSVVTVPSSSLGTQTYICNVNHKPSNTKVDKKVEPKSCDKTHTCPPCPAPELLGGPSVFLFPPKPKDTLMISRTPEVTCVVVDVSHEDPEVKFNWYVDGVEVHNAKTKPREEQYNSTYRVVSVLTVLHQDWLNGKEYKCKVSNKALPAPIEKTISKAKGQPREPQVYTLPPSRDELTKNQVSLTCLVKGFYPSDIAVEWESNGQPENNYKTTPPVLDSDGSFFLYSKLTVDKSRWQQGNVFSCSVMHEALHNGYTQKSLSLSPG
light: B1 light
notes: copies: 2 + 2
B18: chCB6-huIgG1 R301S (antibody, name in EU numbering)
heavy: not shown
light: B1 light
notes: copies: 2 + 2
B19: chCB6-huIgG1 A378R (antibody, name in EU numbering)
heavy: not shown
light: B1 light
notes: copies: 2 + 2
B20: chCB6-huIgG1 R301N (antibody, name in EU numbering)
heavy: not shown
light: B1 light
notes: copies: 2 + 2
B21: chCB6-huIgG1 A378H (antibody, name in EU numbering)
heavy: not shown
light: B1 light
notes: copies: 2 + 2
B22: chCB6-huIgG1 R301K (antibody, name in EU numbering)
heavy: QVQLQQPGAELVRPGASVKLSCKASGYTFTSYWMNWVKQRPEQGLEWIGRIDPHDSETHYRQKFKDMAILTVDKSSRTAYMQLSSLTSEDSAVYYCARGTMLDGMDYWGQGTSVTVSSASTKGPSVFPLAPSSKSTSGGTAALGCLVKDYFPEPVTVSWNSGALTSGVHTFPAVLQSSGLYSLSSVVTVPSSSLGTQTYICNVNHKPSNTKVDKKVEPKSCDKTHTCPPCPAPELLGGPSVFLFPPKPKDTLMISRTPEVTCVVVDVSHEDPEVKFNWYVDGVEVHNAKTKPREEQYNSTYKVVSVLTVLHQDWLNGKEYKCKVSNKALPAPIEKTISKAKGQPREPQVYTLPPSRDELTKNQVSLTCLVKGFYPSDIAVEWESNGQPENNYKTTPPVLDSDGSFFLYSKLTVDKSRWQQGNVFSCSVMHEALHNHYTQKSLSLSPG
light: B1 light
notes: copies: 2 + 2
B23: chCB6-huIgG1 D376H (antibody, name in EU numbering)
heavy: not shown
light: B1 light
notes: copies: 2 + 2
B24: chCB6-huIgG1 S239D/A378F (antibody, name in EU numbering)
heavy: not shown
light: B1 light
notes: copies: 2 + 2
B25: chCB6-huIgG1 I332D/A378F (antibody, name in EU numbering)
heavy: not shown
light: B1 light
notes: copies: 2 + 2
B26: chCB6-huIgG1 I332D/H435G (antibody, name in EU numbering)
heavy: not shown
light: B1 light
notes: copies: 2 + 2
B27: chCB6-huIgG1 S239D/A378K (antibody, name in EU numbering)
heavy: not shown
light: B1 light
notes: copies: 2 + 2
B28: chCB6-huIgG1 S239D/A378W (antibody, name in EU numbering)
heavy: not shown
light: B1 light
notes: copies: 2 + 2
B29: chCB6-huIgG1 I332D/A378K (antibody, name in EU numbering)
heavy: not shown
light: B1 light
notes: copies: 2 + 2
B30: chCB6-huIgG1 I332D/A378Y (antibody, name in EU numbering)
heavy: not shown
light: B1 light
notes: copies: 2 + 2
B31: chCB6-huIgG1 I332D/H435S (antibody, name in EU numbering)
heavy: not shown
light: B1 light
notes: copies: 2 + 2
B32: chCB6-huIgG1 I332D/A378W (antibody, name in EU numbering)
heavy: not shown
light: B1 light
notes: copies: 2 + 2
B33: chCB6-huIgG1 S239D/A378Y (antibody, name in EU numbering)
heavy: not shown
light: B1 light
notes: copies: 2 + 2
B34: chCB6-huIgG1 S239D/H435G (antibody, name in EU numbering)
heavy: not shown
light: B1 light
notes: copies: 2 + 2
B35: chCB6-huIgG1 E294T (antibody, name in EU numbering)
heavy: not shown
light: B1 light
notes: copies: 2 + 2

The target in the first experiment is T1, human C1q (Sigma C0660) (human, UniProt P02745 23-245; P02746 28-253; P02747 29-245).
T1 construct: Bought protein; also called complement protein C1q
T1 sequence (P02745 23-245 limits assumed, chain 1 of 3): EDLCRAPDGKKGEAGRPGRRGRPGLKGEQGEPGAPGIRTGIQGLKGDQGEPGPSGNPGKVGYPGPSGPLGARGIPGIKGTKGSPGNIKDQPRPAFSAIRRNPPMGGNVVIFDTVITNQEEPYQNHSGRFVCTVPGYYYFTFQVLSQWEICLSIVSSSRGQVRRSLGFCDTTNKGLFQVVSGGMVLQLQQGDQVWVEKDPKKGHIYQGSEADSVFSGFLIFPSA
T1 sequence (P02746 28-253 limits assumed, chain 2 of 3): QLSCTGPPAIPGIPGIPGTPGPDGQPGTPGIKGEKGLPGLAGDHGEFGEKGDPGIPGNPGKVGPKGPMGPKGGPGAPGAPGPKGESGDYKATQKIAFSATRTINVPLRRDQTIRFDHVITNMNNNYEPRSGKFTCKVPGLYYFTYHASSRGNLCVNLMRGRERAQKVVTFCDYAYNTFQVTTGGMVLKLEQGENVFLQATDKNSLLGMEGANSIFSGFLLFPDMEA
T1 sequence (P02747 29-245 limits assumed, chain 3 of 3): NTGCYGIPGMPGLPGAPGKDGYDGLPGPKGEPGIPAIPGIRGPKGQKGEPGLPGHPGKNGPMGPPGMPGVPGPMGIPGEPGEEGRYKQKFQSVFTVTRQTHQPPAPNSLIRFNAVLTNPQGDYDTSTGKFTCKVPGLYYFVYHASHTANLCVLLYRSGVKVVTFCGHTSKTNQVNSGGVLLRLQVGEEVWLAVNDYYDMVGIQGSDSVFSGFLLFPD
As to the kind of experiment: C1q ELISA on CD2, purified. As for the experimental part: (§1) The C1q binding assay was performed by coating 96 well Maxisorb ELISA plates (Nalge-Nunc Rochester, N.Y., USA) with 50 μl recombinant soluble human CD2 at 10 μg/ml overnight at 4° C. in PBS. The wells were aspirated and washed three times with wash buffer (PBS, 0.05% Tween 20) and blocked for >1 h with 200 μ/well of block/diluent buffer (0.1 M Na₂HPO₄, pH 7, 0.1 M NaCl, 0.05% Tween 20, 0.1% gelatin). The antibody to be tested was diluted in block/diluent buffer starting at 15 μg/ml with 3-fold dilutions. 50 μl were added per well, and the plates incubated for 2 h at room temperature. After aspirating and washing as above, 50 μl/well of 2 μg/ml of Sigma human C1q (C0660) diluted in block/diluent buffer was added and incubated for 1.5 h at room temperature. After aspirating and washing as above, 50 μl/well of chicken anti human C1q (Cedarlane laboratories CL2101AP), diluted 2,000-fold in block/diluent buffer, was added. After incubation for 1.5 h at room temperature, the wells were aspirated and washed as above. 50 μl/well of donkey F(ab′)₂ anti chicken IgY HRP conjugate (Jackson ImmunoResearch 703-036-155) diluted to 1:5,000 in block/diluent was then added, and the wells incubated for 1 h at room temperature. After aspirating and washing as above, 100 μl TMB substrate (420 μM TMB, 0.004% H₂O₂ in 0.1 M sodium acetate/citric acid buffer, pH 4.9) was added and incubated for 2 min before the reaction was stopped with 100 μl 2 N sulfuric acid. The absorbance was read at 450 nm with a Softmax P instrument, and Softmax software was used to determine the relative binding affinity (C value) with a 4-parameter fit.
For B1, the binding result is “binds”.

As for B2, the “fold increase in binding vs WT” value amounted to 4 fold. Take B3: the “fold increase in binding vs WT” value is 2 fold. With B4, the binding result is given as “binds”.

The target in another experiment is T1, human C1q (Sigma C0660). As to the kind of experiment: C1q ELISA on CD2, transient. The method, then:
as §1
(In general: ELISA stands for enzyme-linked immunosorbent assay.)
With B5, the “fold increase in binding vs WT” value stood at 4 fold.

For B6, the “fold decrease in binding vs WT” value was 3 fold.

With B7, the binding result is given as “binds”. Still for that read-out and setting: then B8, with “binds”.

In the case of B9, the “fold decrease in binding vs WT” value turned out to be 4 fold. Consider B10, for which the “fold increase in binding vs WT” value was 4 fold. As to B11, the binding result is reported as “binds”. Regarding B3, the “fold increase in binding vs WT” value is 3 fold. As for B12, the binding result was “binds”.

Turning to B13, the “fold decrease in binding vs WT” value was determined as 7 fold. Turning to B14, the “fold increase in binding vs WT” value was found to be 3 fold. As to B15, the binding result is “binds”. On the same count and under the same terms, for B16 the value was “binds”. For B17, the “fold increase in binding vs WT” value was 4 fold.

Regarding B18, the binding result is “binds”. On to B19, for which the binding result was “binds”. B20: the “fold decrease in binding vs WT” value is 3 fold. On to B21, for which the binding result is “binds”. On the same count and under the same terms, then B22, with “binds”.

Consider B23, for which the binding result is given as “binds”.

The target of the next experiment is T2, human FcγRI (CD64) on IFNγ-activated U937 cells (human, UniProt P12314 16-374).
T2 construct: whole, on cells; also called FcγR1
T2 sequence (P12314 16-374): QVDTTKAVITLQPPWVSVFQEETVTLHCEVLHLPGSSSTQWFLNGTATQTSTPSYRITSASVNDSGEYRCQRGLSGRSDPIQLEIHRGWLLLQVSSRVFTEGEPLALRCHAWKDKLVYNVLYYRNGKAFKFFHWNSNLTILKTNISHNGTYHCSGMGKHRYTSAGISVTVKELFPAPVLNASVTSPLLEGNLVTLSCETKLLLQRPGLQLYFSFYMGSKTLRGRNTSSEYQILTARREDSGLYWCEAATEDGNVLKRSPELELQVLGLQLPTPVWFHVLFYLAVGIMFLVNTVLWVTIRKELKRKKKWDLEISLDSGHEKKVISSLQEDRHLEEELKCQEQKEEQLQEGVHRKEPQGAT
The experiment is described as follows: CD64 bridging assay, purified.
B1: the binding result is on record as “binds”. Take B2: the “fold decrease in binding vs WT” value is 5 fold. Turning to B4, the binding result is listed as “binds”.

For another experiment, the target named is T3, human FcγRIII (CD16), CD16a (F158), on CD16-transfected Jurkat cells (human, UniProt P08637 17-254).
T3 construct: whole, on cells
T3 sequence (P08637 17-254): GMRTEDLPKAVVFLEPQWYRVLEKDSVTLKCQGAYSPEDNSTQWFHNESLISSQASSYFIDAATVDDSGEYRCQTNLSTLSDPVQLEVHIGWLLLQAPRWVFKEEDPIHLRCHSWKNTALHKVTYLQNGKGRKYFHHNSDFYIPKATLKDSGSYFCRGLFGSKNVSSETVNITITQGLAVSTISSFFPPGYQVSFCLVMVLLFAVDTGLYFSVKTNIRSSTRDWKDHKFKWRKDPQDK
The experiment is described as follows: CD16 bridging assay, transient.
B1: the binding result is reported as “binds”. Same read-out and setting: for B2 the value was “binds”.

Regarding B4, the “fold increase in binding vs WT” value amounted to 3 fold.

The target in a further experiment is T3, human FcγRIII (CD16), CD16a (F158), on …. The experiment is described as follows: CD16 bridging assay, transient. This is another data set of the same source.
As for B24, the “fold increase in binding vs WT” value worked out at 5 fold. For B25, the “fold increase in binding vs WT” value was 5 fold. B26: the binding result is reported as “binds”. For B27, the “fold increase in binding vs WT” value stood at 5 fold. The same measure, in the same setting: then B28, with 4 fold. In the case of B29, the binding result is given as “binds”.

Take B30: the “fold increase in binding vs WT” value was 5 fold.

With B31, the binding result is given as “binds”. With B32, the “fold increase in binding vs WT” value stood at 5 fold. On the same count and under the same terms, for B33 the value was 4 fold; for B34, 3 fold.

A further experiment shares this target. The experiment is described as follows: CD16 bridging assay, transient. This is another data set of the same source.
Turning to B6, the binding result was “no binding”.

On to B8, for which the binding result was “binds”. For the molecule B9, the “fold decrease in binding vs WT” value was 5 fold. Same read-out and setting: for B13 the value was 8 fold; for B15, 5 fold. As to B18, the binding result is “binds”. In the case of B20, the “fold decrease in binding vs WT” value was determined as 5 fold. On the same count and under the same terms, then B22, with 5 fold; and B35, with 8 fold.

The next experiment has the same target. The experiment is described as follows: CD16 bridging assay, transient. The source holds these as a separate data set.
As for B5, the “fold decrease in binding vs WT” value was found to be 5 fold. Same read-out and setting: then B7, with 4 fold. As to B10, the binding result is “binds”.

As for B11, the binding result is recorded as “binds”.

Consider B3, for which the binding result is given as “binds”. As for B12, the “fold decrease in binding vs WT” value came to 9 fold. For the molecule B14, the binding result was “no binding”. Same read-out and setting: for B16 the value was “binds”.

In the case of B17, the “fold decrease in binding vs WT” value amounted to 4 fold. Consider B19, for which the binding result was “binds”.

In the case of B21, the “fold decrease in binding vs WT” value was 6 fold.

In the case of B23, the “fold decrease in binding vs WT” value turned out to be 6 fold.

The values are drawn from patent US20100203046A1 (Biogen, published 2010).
